In the nanobody polyreactivity screen of Harvey et al. (2022):

assay: yeast display, Sf9 membrane polyspecificity reagent, FACS + sequencing; frameworks hold sequencing errors
Procedure, shortened: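 Genes from sorted yeast were amplified by colony PCR, read by MiSeq 2 × 250 sequencing and filtered on CDR length. These cells carried a synthetic nanobody library in Saccharomyces cerevisiae BJ5465 and were sorted by FACS into low and high (top ~1%) gates on anti-HA and streptavidin fluorescence. Polyreactivity is labelled according to the gate of origin.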

Sequence | polyreactivity (PSR sort gate)
QVQLVESGGGLVQAGGSLRLSCASSGSTFTPNAMGWYRQAPGKERELVASNYTTGGNTYYADSVKGRFTNSRDNAKNTVYLQMNSLKPEDTAVYYCNARQALVWKWSWYSPGYDYWGQGTQVTVSS | low polyreactivity
QVQLVESGGGLVQAGGSLRLSCAASGSTITDYDMGWYRQAPGKERELVAAITSGGSTNYADSVKGRFTISRDNAKNTVYLQMNSLKPEDTAVYYCAAADADRKYDYWGQGTQVTVSS | low polyreactivity
QVQLVESGGGLVQAGGSLRLSCAASGSIFAANALGWYRQAPGKERELVAAITSGGGSTYYADSVKGRFTISRDNAKNTVYLQMNSLKPEDTAVYYCAARSLVQDHAYGNNYWGQGTQVTVSS | low polyreactivity
QVQLQESGGGQVQAGGSLRLSCEASGTIFLYAFMGWYRQAPGKERELVAAIDVGTTTNYADSVKGRFTISRDNAKNTVYLQMNSLKPEDTAVYYCAANLGYLDDLGYWGQGTQVTVSS | low polyreactivity
QVQLVESGGGLVQAGGSLRLSCAASGITFGGYALGWYRQAPGKEREFVAGISSSGRSTYYADSVKGRFTISRDNAKNTVYLQMYSLKPEDTAVYYCAVYRVRKVYVLRGPFYYWGQGTQVTVSS | high polyreactivity
QVQLGESRGGIVQAGGSLRLSCAASGSTFSYYAMGWYRQAPGKARELVAAISNRGGSTYYADSVKGRFTISRDNAKNTVYLQMNSLKPEDTAVYYCAAYYVFGYSTSGDYWGQGTQVTVSS | high polyreactivity
QVQLVESGGGVVQAGGSLRLSCAASGRIFRNNAMGWYRQAPGKERVLVAGIRGGGSTYYADSVKGRFTISRDNAKNTVYLQMNSLKPEDTAVYYCNAEASRYVGYGAWQTERDYWGQGTQVTVSS | low polyreactivity
QVQLVESGGGLVQAGGSLRLSCAASGFIFSSYAMGWYRQAPGKERELVAAISWSDSSTYYADSVKGRFTISRDNSKNTVYLQMTSLKPEDTAVYYCNVEVAESYDYWGQGTQVTVSS | low polyreactivity
QVQLVESGGGLVQAGGSLRLSCAASGITFGYYAMGWSRQAPGKERELVAAISSGGRTNYADSVKGRFTISRDNAKNTVYLQMISLKPEDTAVYYCAASTHHPGYPPDVLYDEYEYWGQGTQVTVSS | low polyreactivity
QVQHVESGGGLVQAGGSLRLSCAASGFIFRRNVMGWYRQAPGKERELVAAISNSGGSTYYADSVKGRFTISRDNAKNTVYLQMNSLKPEDTAVYYCAAVYSYWGRYFEYGYWGQGTKVTVSS | high polyreactivity
QVQLVESGGGLVQAGGSLRLSCAASGSILQSYAMGWSRQAPGKERELGAALSGSGGSTYYADSVKGRFTISRDNAKNTVYLQMNSLKPEDTAVYYCAKGPLYRTSRGEFGYWGQGTQVTVSS | low polyreactivity
QVQLVESGGGLVQAGGSLRLSCAASGLIFYSYAMGWYRQAHAKERELVAAITGGGSTNYADSVKGRFTISRDNAKNTVYLQMNSLKPEDTAVYYCAAQAYVEGVYRYDYWGQGTQVTVSS | low polyreactivity
QVQLVESGGGLVQAGGSLRLSCAASGFTFLDSYAMGWYRQAPGKERELVAGITWSVGTTYYADSVKGRFTISRDNAKNTVYLHMNSLKPEDTAVYYCNAVIDVHDPEYDYWGQGTQVTVSS | low polyreactivity
QVQLVESGGGLVQAGGSLRLSCAASGSIFSGYVMGWYRQAPGKERELVAAITWSGGRTYYADSVKGRFTISRDNAKNTVYLQMNSLKPEDTAVYYCAKRKIKSSGYYYWGQGTQVTVSS | high polyreactivity
QVQLVESGGGLVQAGGSLRLSSGASGLTIRRYAMGWSRQAPGKEREFVATISQNGGRTYYADSVKGRFTISRDNAKNTFYLQMNSLKPEDTAVYYCAAEDWRWGYDYWGQGTQVTVSS | high polyreactivity
QVQLVESGGGLVQAGGSHRLSCAASGFTFSAYTMGWYRQAPGKERELVAAISWRGTSTYYADSVKGRFTISRDNAKNTVYLQMNSLKPEDTAVYYCAVRWPSARIPVKLDYWGQGTQVNVSS | high polyreactivity
QVQLVESGGRLVQAGGILRLSCPASGSTFKKYAMGWYRQTPGKERELVASINSSAGSTYYADSVKGRFTISRDNAKNTVYLQMNSLKPEDTAVYYCATCQKVYSGRYDYWGQGTQVTVSS | low polyreactivity
QVQLVESGGGLVQAGGSLRLSCAASGLIFSPYAMGWYRQAPGKEREFVAAITSRGGTYYADSVKGRFTISRDNAKNTVYLQMNSLKPEDTAVYYCAAKSLYSKRQQYEYWGQGTQVTVSS | low polyreactivity
QVQLVESGGGLVQAGGSLRLSCAASGRTLYFNAMGWYRQAPGKERALVADISIGGSTYSADSVKGRFTISRDNAKNTVYLQMNSLKPEDSAVYYCAANAHYYVSYAWSVDVDYWGQGTQVTVSS | high polyreactivity
QVQLVESGGGLVQAGGSLRLSCAASGIIFWYYAMGWYRQAPGKERELVASISGTGGTTYYADSVKGRFTISRDNAKNTVYLQMNSLKPEDTAVYYCAALSGQHDYDYWGQVTQVTVSS | low polyreactivity
QVQLVESGGGIVQAGGSIRLSCAASGRIFRYYAMGWYRQAPGKERELVATISRSGGSTFYAESVKGRFTISRDNAKNTVYLQMNSLIPEDTAVYYCNARYQTGGYGYWGQGTQVTVSS | high polyreactivity
QVQLVESGGGLVQAGGSLRLSCAASGITSSYAMGWYRQAPGKERELVAAISRGGSTYYADSVKGRFTISRDNAKNTVYLQMNSLKPEDTAVYYCNKRRYPYGWGQGTQVTVSS | high polyreactivity

Sequence | polyreactivity (PSR sort gate)
QVQLVESGGGLVQAGGILSLSCAASGIISIYYVMGWYRQAPGKERELVAAITSSGARTYYADSVKGRFTISRDNAKNTVYLQMNSLKPEDTAVYYCAAKAVHLAGYDYWGQGTQVTVSS | high polyreactivity
QVQLVESGGGLVQAGGSLRLSCAASGSIFGFYVMGWYRQAPGKERELVAAISRGGTRTYYAVSVKGRFTISRDNAKNTVYLKMNSLKPEDTAVYYCAKYEGGSCTGPRSDYWGQGTQVTVSS | high polyreactivity
QVQLVESGGGLVQAGGSLRLSCASGRIFKKNALGWYRQAPGKERELVAGITISGGRTYYADSVKGRFTISRDNAKNTVYLQMNSLKPEDTAVYYCNAGPDRRVSYYRLLDHWGQGTQVTVSS | low polyreactivity
QVQLVKSGGGLVQAGGSLRLSCAASGSIFGYNTKGWYRQAPGKERELVATITYRGGSTYYADSVKGRFTISRDNAKNTVYLQMNRLKPEDTAVYYCARRVTRYPDTTWVSAGDYWGQGTQVTVSS | high polyreactivity
QVQLVESGGGLVQAGGSLRLSCAASGYTLRIYAMGWYRQAPGKERELVAAISRSGGRTFYADSVKGRFTISRDNAKNTVYLQMISLTPEDTAVFYCAAVSAYYYRRTYEYWGQGTQVTVSS | high polyreactivity
QVQLVESGGGLVQAGGSLRLSCAASGRILADNAMGWYRQAPGKERELVAAISESGGSTYYADSVKGRFTISRDNAKNTVYLQMNSLKAEDTAVYYCAADTASIYYEYYYWGQGTQVTVSS | low polyreactivity
QVQLVESGGGLVQAGGSLRLSCAASGSPFRRYAMGWYRQAPGTERELVAAISWRGGSTRYADSVKGRFTLSRDNAKNTVYLQMNSLKPEDTAVYYCAALGSYGNPPSYNYWGQGTQVTVSS | high polyreactivity
QVQLVESGGGLVQAGGSLRLSCAASGIIFDTNDIGWYRLGPGKERELVATITQRGGTTYYADSVKGRFTISRDNATNTVYLQMNSLKPEDTAVYYCDADRRSKYDYWGQGTQVSVSS | low polyreactivity
QVQLVESGGGLVQAGGSLRLSCAASGLIFSYYAMGWYRQAPGKERELVAAIDWISGSTYYADSVKGRFTISRDNAKNTVYLQMNSLKPEDTAVYYCAAYGSFWYAGFGYWGQGTQVTVSS | low polyreactivity
QVQLEESGGGSVQAGGSLRISCAASGFTFFSYTMGWYRQAPGKERELVAAISKRGSRTYYADSVKGRFTISRDHAKNTVDLQMNSLKPEDTAVYYCAADAGPEVVHRREDYWGQVTQVTVSS | high polyreactivity
QVQLVESGGGLVQAGGSLRLSCAASGSIFELYAMGWYRQAPGKDRELVASITWSSSNTHYADSVKGRFTISRDNAKNTVYLQMNSMKPEDTAVYYCAKDVLYGQFDGDSWGQGNQVTVSS | low polyreactivity
QVQLVESGGGLVQAGGSLRLSSAASGRIFYFNARGWYRQAPGKARELVAGISSGGSTDYADSVKGRFTISRDNAKNTVDLQMNSLKPEDTAVYYCATRRSRYSYSGYWGQATQVTVSS | high polyreactivity
QVQLVESGGGLVQAGGSLRLSCAASGRIFGYYAMVCYRQAPGKERELVAAISSGGGSTYYADSVKGRFTISRDNAKNTVYLQMNSLKPEDTAVYYCIVAYRWSTRYDYWGQGTQVTVSS | high polyreactivity
QVQLVESGGGLVQAGGSLRLSCAASGSTFTTYAMGWYRQSPGKERELVAVITDSGGTYYADSVKGRFTISRDNAKNTVYLQMNSLKPEDTAVYYCNRVFPPTDYEFDSWGQGTQVTVSS | low polyreactivity
QVQLVESGGGLVQAGGSLRLSCAASGITFYYYAMGWYRQAPGKERELVAAISRSGGRTYYADSVKGRFTISRDNAKNTVYLQMNSLKPEDTAVYYCAAVRYQGGDSSIEYDYWGQGTQVTVSS | high polyreactivity
QVQLVESGGGLVQAGGSLRLSCAASGSIFRYYAMGAYRQAPGKARELVAAISIRGGRTYYADSVKGRFTISRDNAKNTVYLQMNSLKPEDTAVYYCATAFGFTAKYYYWGQGTQVTVSS | high polyreactivity
QVQLVESGGGLVQAGGSLRLSCAASGIIFENYAMGWYRQAPGKERELVAAINKRGSRTYFADSVTGRFTISRDNAKNTVYLQMNSLKPEDTAVYYCNAVNPYYAPTDRRVGYDYWGQGTQVTVSS | high polyreactivity
QVQLVESGRGLVQAGGSLRLSCAASGFIFSNAIGWYRQAPGKERELVAAISRSGGSTYYADSVKGRVTISRDNAKNTVSLQMNSLKPEDTAVEYCAARSYPRSPVRYDYWGQGTQVTVSS | high polyreactivity
QVQLVESGGGLVQAGGSLRLSCAASGSIFESYAMGWYRQAPGKERELVAAIDSGDSTYYADSVKGRFTISRDNAKNTVYLQMNSLKPEDTAVYYCAAGYLFLKRIWQSRMDYWGQGTQVTVSS | low polyreactivity
QVQLVESGGGLVQAGGSLRLSCAASGSIFDPNAMGWYRQAPGKERELVAAISTSTGNTYYADSVKGRCTISRDNAKNTVYLQMNSLKPEDTAVYYCAAKGTPSYGSYHYDMDYWGQGTQVTVSS | low polyreactivity
QVQLVESGGGLVQAGGSLRLSCAASGFIFDWNTMGWYRQAPGKERELVAAITESSGSTYYADSVKGRFTISRDNAKNTVYLQMNSLKPEDTAVYYCAADLDVYVSIGSRFHFDYWGQGTQVTVSS | low polyreactivity
